Values belong to the molecule of their own block, whether it stands above or below them.
Key:
[1] = molecular target: T1, COQ3 (tetrapod ancestral) (Tetrapoda, UniProt Z9LPW8APZ1); experiment: microscale thermophoresis; format: binding
T1 construct: expressed in E. coli
T1 sequence (Z9LPW8APZ1 39-362): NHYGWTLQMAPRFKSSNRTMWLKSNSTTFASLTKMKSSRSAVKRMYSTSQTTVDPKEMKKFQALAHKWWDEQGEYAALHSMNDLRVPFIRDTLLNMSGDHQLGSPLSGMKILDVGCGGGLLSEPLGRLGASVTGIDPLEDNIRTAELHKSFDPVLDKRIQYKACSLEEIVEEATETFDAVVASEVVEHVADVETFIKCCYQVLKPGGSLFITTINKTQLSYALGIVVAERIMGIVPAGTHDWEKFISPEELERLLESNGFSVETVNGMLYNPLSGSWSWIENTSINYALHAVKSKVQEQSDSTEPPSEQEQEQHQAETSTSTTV

[2] = system: CC(C)=CCc1cc(C(=O)O)cc(O)c1O; experiment: purified protein; conditions: 2 mM SAM, no added Mg2+, pH 7.2, 25 °C
[3] = system: COc1cc(O)cc(CC=C(C)C)c1O; experiment: purified protein; conditions: 1 mM SAM, 150 uM NADH, 25 °C
[4] = system: NC(=O)C1=CN([C@@H]2O[C@H](COP(=O)(O)OP(=O)(O)OC[C@H]3O[C@@H](n4cnc5c(N)ncnc54)[C@H](O)[C@@H]3O)[C@@H](O)[C@H]2O)C=CC1; experiment: purified protein; conditions: 700 uM non-prenylated 5ox, without COQ9, 0.05% DDM, pH 7.2, 25 °C
[5] = system: Nc1ncnc2c1ncn2[C@@H]1O[C@H](COP(=O)(O)OP(=O)(O)OP(=O)(O)O)[C@@H](O)[C@H]1O; experiment: ATPase activity (Malachite green phosphate); format: biochemical, Tetrapoda; conditions: basal ATPase; no COQ partner or intermediate

Kd [1]: 6.5 µM
Molecule: CC(C)=CCc1cc(C(=O)O)cc(O)c1O [compound 2, 3,4-dihydroxy-5-(3-methylbut-2-en-1-yl)benzoic acid]

Molecule: COQ3 (tetrapod ancestral) (Tetrapoda)
Km [2]: 887.9 µM
kcat [2]: 0.0467 s⁻¹

Molecule: COQ5 (tetrapod ancestral) (Tetrapoda)
Km [3]: 444 µM
kcat [3]: 0.04 s⁻¹

Molecule: COQ7 (tetrapod ancestral) (Tetrapoda)
Km [4]: 141.7 µM
kcat [4]: 0.02 s⁻¹

Molecule: COQ8B (tetrapod ancestral) (Tetrapoda)
Km [5]: 26.6 µM
kcat [5]: 0.0067 s⁻¹

Reference: PMC7615680, “In vitro construction of the COQ metabolon unveils the molecular determinants of coenzyme Q biosynthesis” (Nature catalysis, 2024)
